Experimental findings from publication PMC12852381 (2025) are described below.

This test has as its target DENV-2 Envelope protein (DENV E dimeric protein) (Dengue virus type 2; strain of the BLI …, UniProt P14340). The test can be described thus: BLI; Octet RED 96, 24 °C, 1,000 rpm; CR3022 (5 µg/ml) loaded on AHC (anti-hIgG Fc capture) sensors; DENV E dimeric protein diluted three-fold from 6,000 nM; 50 mM Tris, 150 mM NaCl, 0.5% glycerol, pH 8.0; global 1:1 fit. To be noted: both partners purified.

B1: CR3022, an antibody against the SARS-CoV-2 spike protein (antibody, V domains shown)
VH: EVQLVQSGTEVKKPGESLKISCKGSGYGFITYWIGWVRQMPGKGLEWMGIIYPGDSETRYSPSFQGQVTISADKSINTAYLQWSSLKASDTAIYYCAGGSGISTPMDVWGQGTTVTVSS
VL: not shown
Consider B1, for which the dissociation constant Kd (commonly the equilibrium constant for the complex coming apart) is 2830 nM.
